Laboratory results published in FireProtDB (doi:10.1016/j.jmb.2010.08.048).

B1: Glucocorticoid receptor, P04150 (parent)
chain: MDSKESLTPGREENPSSVLAQERGDVMDFYKTLRGGATVKVSASSPSLAVASQSDSKQRRLLVDFPKGSVSNAQQPDLSKAVSLSMGLYMGETETKVMGNDLGFPQQGQISLSSGETDLKLLEESIANLNRSTSVPENPKSSASTAVSAAPTEKEFPKTHSDVSSEQQHLKGQTGTNGGNVKLYTTDQSTFDILQDLEFSSGSPGKETNESPWRSDLLIDENCLLSPLAGEDDSFLLEGNSNEDCKPLILPDTKPKIKDNGDLVLSSPSNVTLPQVKTEKEDFIELCTPGVIKQEKLGTVYCQASFPGANIIGNKMSAISVHGVSTSGGQMYHYDMNTASLSQQQDQKPIFNVIPPIPVGSENWNRCQGSGDDNLTSLGTLNFPGRTVFSNGYSSPSMRPDVSSPPSSSSTATTGPPPKLCLVCSDEASGCHYGVLTCGSCKVFFKRAVEGQHNYLCAGRNDCIIDKIRRKNCPACRYRKCLQAGMNLEARKTKKKIKGIQQATTGVSQETSENPGNKTIVPATLPQLTPTLVSLLEVIEPEVLYAGYDSSVPDSTWRIMTTLNMLGGRQVIAAVKWAKAIPGFRNLHLDDQMTLLQYSWMFLMAFALGWRSYRQSSANLLCFAPDLIINEQRMTLPCMYDQCKHMLYVSSELHRLQVSYEEYLCMKTLLLLSSVPKDGLKSQELFDEIRMTYIKELGKAIVKREGNSSQNWQRFYQLTKLLDSMHEVVENLLNYCFQTFLDKTMSIEFPEMLAEIITNQIPKYSNGNIKKLLFHQK

Variants of: B1
Conditions: Homo sapiens; pH 7.8; Thermal; CD; Tris-HCl 25mM; structure 1M2Z; whole UniProt chain shown

Variant	Tm [°C]
A605V M752T V702A	53.6
A605V M752T V702A E705G	54.4
F602S A605V	54
F602S	50.3
M752T	48.6
F602S A605V M752T	56
V702A	47.2
F602S A605V M752T V702A E705G	58.6
F602S A605V M752T M560K	49.9
A605V M752T	51.5
A605V M752T E705G	52.9
A605V	49.3
E705G	46.6
